Tests used:
[1] = molecular target: T1, PU.1 ETS domain (PU.1ΔN167) (murine, UniProt P17433 167-272); assay: competition
[2] = molecular target: T1, PU.1 ETS domain (PU.1ΔN167); assay: fluorescence anisotropy
[3] = molecular target: T1, PU.1 ETS domain (PU.1ΔN167); assay: competition; remark: listed apart in the source

B1: [5']AGC (dsDNA)
DNA 1: GCGAATAAGCGGAAGTGAAACCG
DNA 2: CGGTTTCACTTCCGCTTATTCGC
binding signal [1]: ~1 Kd ratio to Cy3-[5']AGC (equal within experimental uncertainty)

B2: Alexa Fluor 488 end-labeled duplex (dsDNA)
DNA 1: CAAGCGGAAGTGAG
DNA 2: CTCACTTCCGCTTG
binding result [2]: binds

B3: NS (dsDNA)
DNA 1: GCGAATAAGCGAGAGTGAAACCG
DNA 2: CGGTTTCACTCTCGCTTATTCGC
binding result [3]: no binding

From paper PMC4872103
